Here are results for four molecules from publication PMC9482650, “Quantitative fragmentomics allow affinity mapping of interactomes” (Nature Communications, 2022).

For experiment [1], the system named is HeLa cell extract preys. Briefly: PDZ-AP-MS, biotinylated MBP-PDZ baits. Format: binding, human. The following applies: for Ratio: fold enrichment of prey; for Difference: log2 enrichment of prey. As to the method: (§1) For PDZ-AP-MS experiments, PDZ domains were cloned as His6-AviTag-MBP-PDZ constructs. For co-expression with BirA, E. coli BL21(DE3) cells were co-transformed with His6-AviTag-MBP, or His6-AviTag-MBP-PDZ-coding and PET21a-BirA (Addgene #20857) plasmids. Simultaneously to IPTG induction, 50 µM biotin was added to the media. After cell harvesting, the lysis buffer was also supplemented with 50 µM biotin. Otherwise, expression and double affinity purification was identical as previously described in details.
(§2) For PBM-AP-MS experiments, 30 μl streptavidin resin was mixed with biotin or peptide at 50–60 μM concentration in 6–6.5 resin volume for 60 min to achieve resin saturation. For PDZ-AP-MS experiments, 30 μl streptavidin resin was mixed with biotinylated MBP or MBP-PDZ at 40-50 μM concentration in >1000× resin volume for 60 min to achieve resin saturation. After saturation, resins were washed a single time (ten resin volume, holdup buffer), and were depleted with biotin (1 mM biotin, 5–10 resin volume, 10 min). Finally, resins were washed two times. 0.5 ml 2 mg/ml cell lysate was added to the dry resin (1 mg total input) and were incubated at 4 °C for 2 h. Then, the beads were washed three times with 10 resin volume buffer containing: 50 mM TRIS pH 8.5, 150 mM NaCl, 1% TritonX-100, 10× complete EDTA-free protease inhibitor cocktail, 2 mM EDTA, 1 mM TCEP. Then, the beads were washed two times with ten resin volume buffer containing: 50 mM TRIS pH 8.5, 150 mM NaCl, 1 mM TCEP. Finally, captured protein was eluted from the resin in two steps and the eluted fractions were pooled. For each elution the beads were incubated for 30 min with three resin volume buffer containing: 20 mM TRIS pH8.5, 100 mM NaCl, 500 μM TCEP, 8 M Urea. Between each step, the beads were separated by mild centrifugation and the supernatant was removed by gentle pipetting.
(§3) The samples were precipitated with TCA 20% overnight at 4 °C and centrifuged at 14,000 rpm for 10 min at 4 °C. The protein pellets were washed twice with 1 mL cold acetone and air dried. The protein extracts were solubilized in urea 8 M, reduced with 5 mM TCEP for 30 min, and alkylated with 10 mM iodoacetamide for 30 min in the dark. Double digestion was performed at 37 °C with 500 ng endoproteinase Lys-C for 4 h, followed by fourfold dilution and an overnight digestion with 500 ng trypsin. Peptide mixtures were then desalted on C18 spin-column and dried on Speed-Vacuum.
(§4) Samples were analyzed using an Ultimate 3000 nano-RSLC (Thermo Scientific, San Jose California) coupled in line with a LTQ-Orbitrap ELITE mass spectrometer via a nano-electrospray ionization source (Thermo Scientific, San Jose California). Peptide mixtures were injected in 0.1% TFA on a C18 Acclaim PepMap100 trap-column (75 µm ID × 2 cm, 3 µm, 100 Å, Thermo Fisher Scientific) for 3 min at 5 µL/min with 2% ACN, 0.1% FA in H2O and then separated on a C18 Accucore nano-column (75 µm ID × 50 cm, 2.6 µm, 150 Å, Thermo Fisher Scientific) at 220 nl/min and 38 °C with a 90 min linear gradient from 5% to 30% buffer B (A: 0.1% FA in H2O/B: 99% ACN, 0.1% FA in H2O), regeneration at 5% B. The mass spectrometer was operated in positive ionization mode, in data-dependent mode with survey scans from m/z 350–1500 acquired in the Orbitrap at a resolution of 120,000 at m/z 400. The 20 most intense peaks from survey scans were selected for further fragmentation in the Linear Ion Trap with an isolation window of 2.0 Da and were fragmented by CID with normalized collision energy of 35%. (TOP20CID method) Unassigned and single charged states were excluded from fragmentation. The Ion Target Value for the survey scans (in the Orbitrap) and the MS2 mode (in the Linear Ion Trap) were set to 1E6 and 5E3 respectively and the maximum injection time was set to 100 ms for both scan modes. Dynamic exclusion was set to 20 s after one repeat count with mass width at ±10 ppm. […]

Experiment [2] has as its system HEK293T cells. As to the kind of experiment: Label-free MS proteome of stable cell lines expressing HPV16 E6 or E6ΔPBM. The format is cell-based, human. To be noted: protein level. As to the method:
HEK293T and HeLa cells were authenticated and found 100% identity to ATCC cat. CRL-3216 and ATCC cat. CCL-2, respectively. Jurkat and HaCat cell lines were not authenticated (original source: ECACC and Deutsches Krebsforschungszentrum DKFZ, respectively). HeLa cells were grown in DMEM (1 g/L glucose, Gibco) medium completed with 5% FCS and 40 μg/mL gentamicin, diluted every 3rd/4th day 1/10. HaCat cells were grown in DMEM (1 g/L glucose, Gibco) medium completed with 10% FCS and 40 μg/mL gentamicin, diluted every 3rd/4th day 1/4. Jurkat cells were grown in RPMI (Gibco) medium completed with 10% FCS and 40 μg/mL gentamicin, diluted every 3rd/4th day 1/12. All cells were kept at 37 °C and 5% CO2. For proteomics analyses cells were seeded on T-175 flasks. After they reached confluency, adherent cells were washed with PBS once and collected by scraping with ice-cold lysis buffer (Hepes-KOH pH 7.5 50 mM, NaCl 150 mM, Triton X-100 1%, complete EDTA-free protease inhibitor cocktail 1×, EDTA 2 mM, TCEP 5 mM, glycerol 10%). Jurkat cells were collected by 1000 g × centrifugation, washed once with PBS, then collected by 1000 g × 5 min centrifugation again and lysed in ice-cold lysis buffer. Lysates were sonicated 4 × 20 s with 1 s long pulses on ice, then incubated rotating at 4 °C for 30 min. Lysates were centrifuged at 12,000 rpm 4 °C for 20 min and supernatant was kept for further analysis. Concentration determination was carried out by standard Bradford method (Bio-Rad Protein Assay Dye Reagent #5000006) using BSA (MP BIomedicals #160069) as control on a Bio-Rad SmartSpec 3000 spectrophotometer instrument.
as §3
Samples were analyzed using an Ultimate 3000 nano-RSLC (Thermo Scientific, San Jose California) coupled in line with a LTQ-Orbitrap ELITE mass spectrometer via a nano-electrospray ionization source (Thermo Scientific, San Jose California). Peptide mixtures were injected in 0.1% TFA on a C18 Acclaim PepMap100 trap-column (75 µm ID × 2 cm, 3 µm, 100 Å, Thermo Fisher Scientific) for 3 min at 5 µL/min with 2% ACN, 0.1% FA in H2O and then separated on a C18 Accucore nano-column (75 µm ID × 50 cm, 2.6 µm, 150 Å, Thermo Fisher Scientific) at 220 nl/min and 38 °C with a 90 min linear gradient from 5% to 30% buffer B (A: 0.1% FA in H2O/B: 99% ACN, 0.1% FA in H2O), regeneration at 5% B. The mass spectrometer was operated in positive ionization mode, in data-dependent mode with survey scans from m/z 350–1500 acquired in the Orbitrap at a resolution of 120,000 at m/z 400. The 20 most intense peaks from survey scans were selected for further fragmentation in the Linear Ion Trap with an isolation window of 2.0 Da and were fragmented by CID with normalized collision energy of 35%. (TOP20CID method) Unassigned and single charged states were excluded from fragmentation. The Ion Target Value for the survey scans (in the Orbitrap) and the MS2 mode (in the Linear Ion Trap) were set to 1E6 and 5E3 respectively and the maximum injection time was set to 100 ms for both scan modes. Dynamic exclusion was set to 20 s after one repeat count with mass width at ±10 ppm.
Proteins were identified by database searching using SequestHT (Thermo Fisher Scientific) with Proteome Discoverer 2.4 software (PD2.4, Thermo Fisher Scientific) on human FASTA database downloaded from SwissProt (reviewed, release 2020_11_27, 20304 entries, https://www.uniprot.org/). […]

The subject of experiment [3] is HaCat cell extract preys. Briefly: PDZ-AP-MS, biotinylated MBP-PDZ baits. Format: binding, human. To be noted: for Difference log2: enrichment of prey. As to the method: as §1, §2, §3, §4

B1: NONO (protein, UniProt Q15233 1-471, looked up)
Non-POU domain-containing …: MQSNKTFNLEKQNHTPRKHHQHHHQQQHHQQQQQQPPPPPIPANGQQASSQNEGLTIDLKNFRKPGEKTFTQRSRLFVGNLPPDITEEEMRKLFEKYGKAGEVFIHKDKGFGFIRLETRTLAEIAKVELDNMPLRGKQLRVRFACHSASLTVRNLPQYVSNELLEEAFSVFGQVERAVVIVDDRGRPSGKGIVEFSGKPAARKALDRCSEGSFLLTTFPRPVTVEPMDQLDDEEGLPEKLVIKNQQFHKEREQPPRFAQPGSFEYEYAMRWKALIEMEKQQQDQVDRNIKEAREKLEMEMEAARHEHQVMLMRQDLMRRQEELRRMEELHNQEVQKRKQLELRQEEERRRREEEMRRQQEEMMRRQQEGFKGTFPDAREQEIRMGQMAMGGAMGINNRGAMPPAPVPAGTPAPPGPATMMPDGTLGLTPPTTERFGQAATMEGIGAIGGTPPAFNRAAPGAEFAPNKRRRY
As to B1, the Ratio was 31.101 in experiment [1] (bait DLG1_1 PDZ vs MBP control) and 27.0527 in experiment [1] (bait SCRIB_2 PDZ vs MBP control). For the same molecule, the Difference in experiment [1] (bait DLG1_1 PDZ vs MBP control) is 4.959; in experiment [1] (bait SCRIB_2 PDZ (biotinylated MBP-PDZ) vs MBP control), 4.7577.

B2: PGP (protein, UniProt A6NDG6 1-321, looked up)
Glycerol-3-phosphate …: MAAAEAGGDDARCVRLSAERAQALLADVDTLLFDCDGVLWRGETAVPGAPEALRALRARGKRLGFITNNSSKTRAAYAEKLRRLGFGGPAGPGASLEVFGTAYCTALYLRQRLAGAPAPKAYVLGSPALAAELEAVGVASVGVGPEPLQGEGPGDWLHAPLEPDVRAVVVGFDPHFSYMKLTKALRYLQQPGCLLVGTNMDNRLPLENGRFIAGTGCLVRAVEMAAQRQADIIGKPSRFIFDCVSQEYGINPERTVMVGDRLDTDILLGATCGLKTILTLTGVSTLGDVKNNQESDCVSKKKMVPDFYVDSIADLLPALQG
In the case of B2, in experiment [2] (E6 cell line vs control), the “Difference log2 E6/Ctrl” value is 0.3606 and the “Ratio E6/Ctrl” value came to 1.284. In experiment [2] (dPBM cell line vs E6 cell line), the “Difference log2 dPBM/E6” value is 0.0821 and the “Ratio dPBM/E6” value is given as 1.059. For the same molecule, in experiment [2] (dPBM cell line vs control), the “Difference log2 dPBM/Ctrl” value is given as 0.4427 and the “Ratio dPBM/Ctrl” value stood at 1.359.

B3: BAIAP2L1 (protein, UniProt Q9UHR4 1-511, looked up)
BAR/IMD domain-containing …: MSRGPEEVNRLTESTYRNVMEQFNPGLRNLINLGKNYEKAVNAMILAGKAYYDGVAKIGEIATGSPVSTELGHVLIEISSTHKKLNESLDENFKKFHKEIIHELEKKIELDVKYMNATLKRYQTEHKNKLESLEKSQAELKKIRRKSQGSRNALKYEHKEIEYVETVTSRQSEIQKFIADGCKEALLEEKRRFCFLVDKHCGFANHIHYYHLQSAELLNSKLPRWQETCVDAIKVPEKIMNMIEEIKTPASTPVSGTPQASPMIERSNVVRKDYDTLSKCSPKMPPAPSGRAYTSPLIDMFNNPATAAPNSQRVNNSTGTSEDPSLQRSVSVATGLNMMKKQKVKTIFPHTAGSNKTLLSFAQGDVITLLIPEEKDGWLYGEHDVSKARGWFPSSYTKLLEENETEAVTVPTPSPTPVRSISTVNLSENSSVVIPPPDYLECLSMGAAADRRADSARTTSTFKAPASKPETAAPNDANGTAKPPFLSGENPFATVKLRPTVTNDRSAPIIR
For B3, in experiment [3] (bait SCRIB_2 PDZ vs MBP), the “Difference log2” value is on record as 3.855. Moreover, the “Ratio SCRIB_2/MBP” value in experiment [3] (bait SCRIB_2 PDZ, fold change of prey) came out at 14.4736.

B4: CDH1 (protein, UniProt P12830 155-882, looked up)
Cadherin-1: DWVIPPISCPENEKGPFPKNLVQIKSNKDKEGKVFYSITGQGADTPPVGVFIIERETGWLKVTEPLDRERIATYTLFSHAVSSNGNAVEDPMEILITVTDQNDNKPEFTQEVFKGSVMEGALPGTSVMEVTATDADDDVNTYNAAIAYTILSQDPELPDKNMFTINRNTGVISVVTTGLDRESFPTYTLVVQAADLQGEGLSTTATAVITVTDTNDNPPIFNPTTYKGQVPENEANVVITTLKVTDADAPNTPAWEAVYTILNDDGGQFVVTTNPVNNDGILKTAKGLDFEAKQQYILHVAVTNVVPFEVSLTTSTATVTVDVLDVNEAPIFVPPEKRVEVSEDFGVGQEITSYTAQEPDTFMEQKITYRIWRDTANWLEINPDTGAISTRAELDREDFEHVKNSTYTALIIATDNGSPVATGTGTLLLILSDVNDNAPIPEPRTIFFCERNPKPQVINIIDADLPPNTSPFTAELTHGASANWTIQYNDPTQESIILKPKMALEVGDYKINLKLMDNQNKDQVTTLEVSVCDCEGAAGVCRKAQPVEAGLQIPAILGILGGILALLILILLLLLFLRRRAVVKEPLLPPEDDTRDNVYYYDEEGGGEEDQDFDLSQLHRGLDARPEVTRNDVAPTLMSVPRYLPRPANPDEIGNFIDENLKAADTDPTAPPYDSLLVFDYEGSGSEAASLSSLNSSESDKDQDYDYLNEWGNRFKKLADMYGGGEDD
Regarding B4, the “Difference log2” value in experiment [3] (bait TX1BP3 PDZ vs MBP) amounted to 8.222. In experiment [3] (bait TX1BP3 PDZ, fold change of prey), the “Ratio TX1BP3/MBP” value turned out to be 298.682.
